Data: article PMC5445526

Key:
(GB1)2-BXA [1] = test: MALDI-TOF mass spectrometry
(GB1)2-BXA [2] = test: SEC + other: SDS-PAGE with gel densitometry
(GB1)2-BXA [3] = test: SDS-PAGE with gel densitometry
(GB1)2-BXA [4] = test: SEC
AXB-(GB1)2 [5] = test: MALDI-TOF mass spectrometry
AXB-(GB1)2 [6] = test: SEC + other: SDS-PAGE with gel densitometry
AXB-(GB1)2 [7] = test: SDS-PAGE with gel densitometry
AXB-(GB1)2 [8] = test: SEC
(GB1)2-AXB [9] = test: MALDI-TOF mass spectrometry
(GB1)2-AXB [10] = test: SEC + other: SDS-PAGE with gel densitometry
(GB1)2-AXB [11] = test: SDS-PAGE with gel densitometry
(GB1)2-AXB [12] = test: SEC
BXA-(GB1)2 [13] = test: MALDI-TOF mass spectrometry
BXA-(GB1)2 [14] = test: SEC + other: SDS-PAGE with gel densitometry
BXA-(GB1)2 [15] = test: SDS-PAGE with gel densitometry
BXA-(GB1)2 [16] = test: SEC

(GB1)2-BXA
stoichiometry N ((GB1)2-BXA [1]): 2 | overall catenation efficiency (%) ((GB1)2-BXA [2]): 76% | dimer content by SDS-PAGE densitometry (%) ((GB1)2-BXA [3]): 83% | dimer content by SEC (%) (SEC): 92% | stoichiometry N ((GB1)2-BXA [4]): 2

AXB-(GB1)2
stoichiometry N (AXB-(GB1)2 [5]): 2 | overall catenation efficiency (%) (AXB-(GB1)2 [6]): 66% | dimer content by SDS-PAGE densitometry (%) (AXB-(GB1)2 [7]): 80% | dimer content by SEC (%) (SEC): 82% | stoichiometry N (AXB-(GB1)2 [8]): 2

(GB1)2-AXB
stoichiometry N ((GB1)2-AXB [9]): 2 | overall catenation efficiency (%) ((GB1)2-AXB [10]): 73% | dimer content by SDS-PAGE densitometry (%) ((GB1)2-AXB [11]): 93% | dimer content by SEC (%) (SEC): 78% | stoichiometry N ((GB1)2-AXB [12]): 2

BXA-(GB1)2
stoichiometry N (BXA-(GB1)2 [13]): 2 | overall catenation efficiency (%) (BXA-(GB1)2 [14]): 83% | dimer content by SDS-PAGE densitometry (%) (BXA-(GB1)2 [15]): 86% | dimer content by SEC (%) (SEC): 97% | stoichiometry N (BXA-(GB1)2 [16]): 2
